Measurements taken from patent publication US20100119506A1 (published 2010).
Positions count from the first letter of the chain named.

T1: Human PAR-2 on cells (human, UniProt P55085 26-397)
T1 construct: also called HEK-PAR-2 (#3); human PAR-2 transfected HEK293 cells
T1 sequence: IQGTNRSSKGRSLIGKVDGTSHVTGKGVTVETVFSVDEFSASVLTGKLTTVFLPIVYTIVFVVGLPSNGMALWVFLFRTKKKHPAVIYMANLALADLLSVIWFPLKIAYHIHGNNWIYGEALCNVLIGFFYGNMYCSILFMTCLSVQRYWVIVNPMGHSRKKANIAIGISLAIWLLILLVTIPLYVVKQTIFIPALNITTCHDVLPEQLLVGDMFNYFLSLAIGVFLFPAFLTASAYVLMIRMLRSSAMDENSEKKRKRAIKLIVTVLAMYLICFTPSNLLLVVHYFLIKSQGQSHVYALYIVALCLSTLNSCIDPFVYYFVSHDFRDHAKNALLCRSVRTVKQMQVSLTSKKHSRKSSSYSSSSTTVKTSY

T2: FLAG-tagged PAR-2 over-expressed on HEK transfectants (Homo sapiens (Human), UniProt P55085 37-397)
T2 sequence: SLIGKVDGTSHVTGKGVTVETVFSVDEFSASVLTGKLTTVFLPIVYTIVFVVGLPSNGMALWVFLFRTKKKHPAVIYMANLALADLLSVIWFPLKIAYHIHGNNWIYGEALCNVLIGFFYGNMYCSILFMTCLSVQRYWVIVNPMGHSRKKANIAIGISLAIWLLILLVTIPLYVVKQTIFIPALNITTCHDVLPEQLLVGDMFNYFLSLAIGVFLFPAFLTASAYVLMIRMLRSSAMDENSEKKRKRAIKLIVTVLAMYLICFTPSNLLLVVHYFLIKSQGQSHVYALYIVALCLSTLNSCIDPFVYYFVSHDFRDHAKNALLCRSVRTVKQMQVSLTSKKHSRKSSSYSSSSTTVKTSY

B1: Ab4994 Fab (Fab, V domains shown)
VH: QVELVESGGGLVQPGGSLRLSCAASGFTFSSYAMNWVRQAPGKGLEWVSAISYSGHLTGYADSVKGRFTISRDNSKNTLYLQMNSLRAEDTAVYYCARIQNDPMDVWGQGTLVTVSS
VL: DIELTQPPSVSVAPGQTARISCSGDNLGKKYVQWYQQKPGQAPVLVIYDDSNRPSGIPERFSGSNSGNTATLTISGTQAEDEADYYCSSWDVGSDGWVFGGGTKLTVLG
notes: Fab
B2: Ab5003 Fab (Fab, V domains shown)
VH: B1 VH with S54K
VL: B1 VL
notes: Fab
B3: Ab5007 Fab (Fab, V domains shown)
VH: B1 VH with Y53F
VL: B1 VL
notes: Fab
B4: Ab4997 Fab (Fab, V domains shown)
VH: B1 VH with S54N, H56K, T58K
VL: B1 VL
notes: Fab
B5: Ab5006 Fab (Fab, V domains shown)
VH: B1 VH with S49G, Y53F, S54D, H56M
VL: B1 VL
notes: Fab
B6: Ab4994 IgG4_Pro (antibody, V domains shown)
VH: B1 VH with E3Q
VL: B1 VL
notes: IgG4_Pro: variable regions fused to human IgG4 constant regions with Ser241Pro in the hinge, lambda light chain; also called IgG4p Ab4994
B7: Ab4997 IgG4_Pro (antibody, V domains shown)
VH: B1 VH with E3Q, S54N, H56K, T58K
VL: B1 VL
notes: IgG4_Pro (human IgG4 constant regions, Ser241Pro hinge), lambda; also called IgG4p Ab4997
B8: Ab5005 IgG4_Pro (antibody, V domains shown)
VH: B1 VH with E3Q, A50T, G55S, H56S, L57A, G59S
VL: DIELTQPPSVSVAPGQTARISCSGDNLGKKYVQWYQQKPGQAPVLVIYDDSNRPSGIPERFSGSNSGNTATLTISGTQAEDEADYYCQSWALVGSSESNVFGGGTKLTVLG
notes: IgG4_Pro (human IgG4 constant regions, Ser241Pro hinge), lambda; also called IgG4p Ab5005
B9: Ab5007 IgG4_Pro (antibody, V domains shown)
VH: B1 VH with E3Q, Y53F
VL: B1 VL
notes: IgG4_Pro (human IgG4 constant regions, Ser241Pro hinge), lambda; also called IgG4p Ab5007
B10: Ab5003 IgG4_Pro (antibody, V domains shown)
VH: B1 VH with E3Q, S54K
VL: B1 VL
notes: IgG4_Pro (human IgG4 constant regions, Ser241Pro hinge), lambda; also called IgG4p Ab5003
B11: Ab5149 IgG4_Pro (cross-cloned: light chain of Ab4999 with heavy chain of Ab4997) (antibody, V domains shown)
VH: B1 VH with E3Q, S54N, H56K, T58K
VL: DIELTQPPSVSVAPGQTARISCSGDNLGKKYVQWYQQKPGQAPVLVIYDDSNRPSGIPERFSGSNSGNTATLTISGTQAEDEADYYCQTWDYSSIRDETNVFGGGTKLTVLG
notes: IgG4_Pro format
B12: Ab5150 IgG4_Pro (cross-cloned: light chain of Ab4999 with heavy chain of Ab5003) (antibody, V domains shown)
VH: B1 VH with E3Q, S54K
VL: B11 VL
notes: IgG4_Pro format

These binders were tested against T1, Human PAR-2 on cells (assay: cell binding, Fab against IgG4p of the same clone).

Binder | Ratio of EC50 Fab / EC50 IgG
B1 | 4.8
B2 | 15.3
B3 | 19.3
B4 | 8

The binders below were run against T1, Human PAR-2 on cells (assay: binding of Fab to PAR-2 transfected HEK cells (HEK-PAR-2 #3)).

Binder | EC50 [nM]
B1 | 1.9
B2 | 7.03
B5 | 11.9
B3 | 9.66
B4 | 3.03

Each binder was assayed against T1, Human PAR-2 on cells (assay: binding of IgG4p to PAR-2 transfected HEK cells (HEK-PAR-2 #3)).

Binder | EC50 [nM]
B6 | 0.4
B7 | 0.38
B8 | 0.06
B9 | 0.5
B10 | 0.46

Each binder was assayed against T2, FLAG-tagged PAR-2 over-expressed on HEK … (assay: cell-based or functional assay).

Binder | FLAG Cell-Based Cleavage Approx. IC50 [nM]
B11 | < 1
B6 | < 1
B7 | < 1
B8 | < 1
B9 | < 1
B12 | < 1
B10 | < 1

What follows are binders tested against labeled peptide representing the N-terminus of PAR-2 (FRET assay) (assay: cell-based or functional assay).

Binder | FRET Peptide Cleavage IC50 [nM]
B11 | < 30
B6 | < 30
B7 | < 30
B8 | < 30
B9 | < 30
B12 | < 30
B10 | < 30

What follows are binders tested against T1, Human PAR-2 on cells (assay: cell-based or functional assay).

Binder | FLIPR A549 cells IC50 [nM]
B11 | 3.3
B6 | 2.2
B7 | 2.4
B8 | 2.5
B9 | 3.7
B12 | 2.3
B10 | 2.3

Each binder was assayed against T1, Human PAR-2 on cells (assay: cell binding of IgG4_Pro, HEK-PAR-2 (#3)).

Binder | EC50 [nM]
B11 | 0.7
B6 | 0.4
B7 | 0.4
B8 | 0.1
B9 | 0.5
B12 | 0.3
B10 | 0.5
